{
  "source": "paper PMC3226435",
  "about": "“Slice orientation and muscarinic acetylcholine receptor activation determine the involvement of N-methyl D-aspartate receptor subunit GluN2B in hippocampal area CA1 long-term depression” (Molecular Brain, 2011)",
  "target": "T1, N-methyl D-aspartate receptor subunit GluN2B (rat (endogenous in hippocampal slices), UniProt Q00960 27-1482)",
  "T1 construct": "NMDA receptor subunit GluN2B, endogenous in hippocampal slices of male Sprague-Dawley rats aged 14-21 days; Immunoprecipitated from the lysate with a rabbit polyclonal antibody against the GluN2B C-terminus; other NMDA receptor subunits may be present in the precipitate but were not examined; source: endogenous, lysate of rat hippocampal slices (RIPA buffer)",
  "T1 sequence (Q00960 27-1482)": "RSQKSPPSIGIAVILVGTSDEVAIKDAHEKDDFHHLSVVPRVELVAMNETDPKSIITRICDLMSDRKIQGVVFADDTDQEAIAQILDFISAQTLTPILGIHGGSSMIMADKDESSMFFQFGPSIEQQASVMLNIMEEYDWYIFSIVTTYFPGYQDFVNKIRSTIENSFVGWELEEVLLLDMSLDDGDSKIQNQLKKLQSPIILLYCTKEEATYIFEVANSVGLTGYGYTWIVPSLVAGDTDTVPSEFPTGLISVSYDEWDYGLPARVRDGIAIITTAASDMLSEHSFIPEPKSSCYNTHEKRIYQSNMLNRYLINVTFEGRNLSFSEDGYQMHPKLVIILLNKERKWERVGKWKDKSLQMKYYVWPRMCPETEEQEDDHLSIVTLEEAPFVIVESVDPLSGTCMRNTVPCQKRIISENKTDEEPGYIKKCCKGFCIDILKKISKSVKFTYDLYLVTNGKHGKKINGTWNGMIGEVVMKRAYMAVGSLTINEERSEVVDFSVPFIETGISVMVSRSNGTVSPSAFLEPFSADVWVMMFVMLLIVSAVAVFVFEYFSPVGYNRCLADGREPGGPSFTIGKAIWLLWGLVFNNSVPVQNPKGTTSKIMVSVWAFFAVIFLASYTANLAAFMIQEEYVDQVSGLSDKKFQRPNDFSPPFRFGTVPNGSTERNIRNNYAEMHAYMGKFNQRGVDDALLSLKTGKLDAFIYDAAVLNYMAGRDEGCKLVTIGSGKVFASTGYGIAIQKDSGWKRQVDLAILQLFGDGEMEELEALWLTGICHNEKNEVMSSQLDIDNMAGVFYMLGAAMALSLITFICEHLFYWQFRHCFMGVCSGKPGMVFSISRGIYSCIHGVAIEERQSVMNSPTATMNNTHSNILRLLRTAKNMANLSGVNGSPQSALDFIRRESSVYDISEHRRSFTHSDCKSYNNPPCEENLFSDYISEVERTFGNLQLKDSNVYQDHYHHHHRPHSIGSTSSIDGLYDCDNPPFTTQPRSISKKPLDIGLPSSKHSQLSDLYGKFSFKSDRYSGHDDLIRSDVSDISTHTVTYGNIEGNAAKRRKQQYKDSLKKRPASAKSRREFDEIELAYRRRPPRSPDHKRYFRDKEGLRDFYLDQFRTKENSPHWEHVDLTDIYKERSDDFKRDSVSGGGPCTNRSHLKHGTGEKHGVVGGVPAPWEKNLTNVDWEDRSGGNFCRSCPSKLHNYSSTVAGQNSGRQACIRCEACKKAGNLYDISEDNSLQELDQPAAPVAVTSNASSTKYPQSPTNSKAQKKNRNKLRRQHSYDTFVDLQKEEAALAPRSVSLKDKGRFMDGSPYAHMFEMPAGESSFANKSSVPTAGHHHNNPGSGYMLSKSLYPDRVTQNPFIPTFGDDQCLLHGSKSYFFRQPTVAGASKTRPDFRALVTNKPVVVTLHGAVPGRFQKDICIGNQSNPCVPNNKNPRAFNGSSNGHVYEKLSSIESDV",
  "assay": "co-IP; GluN2B immunoprecipitated with rabbit polyclonal anti-GluN2B C-terminal antibody on protein A beads from 500 ug RIPA lysate of rat hippocampal slices (sagittal control or 20 uM scopolamine for 2 hrs; untreated coronal or sagittal), overnight at 4°C, four washes in RIPA; Western blot for RasGRF1, RasGRF1 normalized to GluN2B",
  "details": "partners not purified",
  "data": [
    {"binder": "Ras Guanine nucleotide Release Factor 1 (natural protein, rat (endogenous in hippocampal slices), UniProt P28818 1-1244, looked up, RasGRF1, Ras-specific guanine nucleotide exchange factor, endogenous in hippocampal slices of male Sprague-Dawley rats aged 14-21 days; Detected in the GluN2B immunoprecipitate by Western blot with a rabbit polyclonal anti-RasGRF1 antibody; also called RasGRF1; source: endogenous, lysate of rat hippocampal slices (RIPA buffer)) MQKAIRLNDGHVVSLGLLAQRDGTRKGYLSKRSSDNPKWQTKWFALLQNLLFYFESDSSSRPSGLYLLEGSICKRMPSPKRGTSSKESDKQHHYFTVNFSNDSQKSLELRTDDSKDCDEWVAAIARASYKILATEHEALMQKYLHLLQVVETEKTVAKQLRQQLEDGEVEIERLKAEIANLIKDNERIQSNQLVAPEDEDSDIKKIKKVQSFLRGWLCRRKWKNIIQDYIRSPHADSMRKRNQVVFSMLEAEAEYVQQLHILVNNFLRPLRMAASSKKPPITHDDVSSIFLNSETIMFLHQIFYQGLKARIASWPTLVLADLFDILLPMLNIYQEFVRNHQYSLQILAHCKQNRDFDKLLKQYEAKPDCEERTLETFLTYPMFQIPRYILTLHELLAHTPHEHVERNSLDYAKSKLEELSRVMHDEVSETENIRKNLAIERMITEGCEILLDTSQTFVRQGSLIQVPMSEKGKINKGRLGSLSLKKEGERQCFLFSKHLIICTRGSGSKLHLTKNGVISLIDCTLLDDPENMDDDGKGQEVDHLDFKIWVEPKDSPPFTVILVASSRQEKAAWTSDIIQCVDNIRCNGLMMNAFEENSKVTVPQMIKSDASLYCDDVDIRFSKTMNSCKVLQIRYASVERLLERLTDLRFLSIDFLNTFLHSYRVFTDAVVVLDKLISIYKKPITAIPARSLELLFSSSHNTKLLYGDAPKSPRASRKFSSPPPLAIGTSSPVRRRKLSLNIPIITGGKALELASLGCPSDGYTNIHSPISPFGKTTLDTSKLCVASSLTRTPEEIDMTTLEESSGFRKPTSDILKEESDDDQSDVDDTEVSPPTPKSFRNRITQEFPLFNYNSGIMMTCRDLMDSNRSPLSATSAFAIATAGANESPANKEIYRRMSLANTGYSSDQRNIDKEFVIRRAATNRVLNVLRHWVTKHSQDFETDDLLKYKVICFLEEVMHDPDLLPQERKAAANIMRTLTQEEITENHSMLDELLLMTEGVKTEPFENHSAMEIAEQLTLLDHLVFKSIPYEEFFGQGWMKADKNERTPYIMKTTRHFNHISNLIASEILRNEEVSARASTIEKWVAVADICRCLHNYNAVLEITSSINRSAIFRLKKTWLKVSKQTKSLFDKLQKLVSSDGRFKNLRETLRNCDPPCVPYLGMYLTDLAFLEEGTPNYTEDGLVNFSKMRMISHIIREIRQFQQTTYKIEPQPKVTQYLVDETFVLDDESLYEASLRIEPKLPT", "values": [
      {"measurement": "ratio of normalized RasGRF1 in GluN2B immunoprecipitate, coronal/sagittal", "value": "1.33 ± 0.105"},
      {"measurement": "ratio of normalized RasGRF1 in GluN2B immunoprecipitate, scopolamine/control", "value": "2.04 ± 0.451"}
    ]}
  ]
}
